Assay results taken from patent US20240383992A1 (ORICELL THERAPEUTICS, published 2024).
Positions count from the first letter of the chain named.

B1: hBCMA-17 CAR (other)
chain: EIVLTQSPATLSLSPGERATLSCRASESVSVSGIHLLHWYQQKPGQAPRLLIYLGRNRAAGIPARFSGSGSGTDFTLTISSLEPEDAAIYYCLQSRRFPRHFGQGTKLEIKGSTSGSGKPGSGEGSTKGQVQLVQSGAEVKKPGASVKVSCKASGYTFADYTINWVRQATGQGLEWMGWINTETREPTYAYDFRSRFTFTLNTSISTAYLELSSLRSEDTAVYYCARDIRYVMDYWGQGTLVTVSSTTTPAPRPPTPAPTIASQPLSLRPEACRPAAGGAVHTRGLDFACDIYIWAPLAGTCGVLLLSLVITLYCKRGRKKLLYIFKQPFMRPVQTTQEEDGCSCRFPEEEEGGCELRVKFSRSADAPAYQQGQNQLYNELNLGRREEYDVLDKRRGRDPEMGGKPRRKNPQEGLYNELQKDKMAEAYSEIGMKGERRRGKGHDGLYQGLSTATKDTYDALHMQALPPR
B2: hBCMA-22 CAR (other)
chain: B1 chain with S32P, H35S, L36F, L37I, R56S, A59P, A60S, T188A, S195G
B3: hBCMA-23 CAR (other)
chain: B1 chain with S32P, H35S, L36F, L37I, R56S, A59P, A60S
B4: hBCMA-20 CAR (other)
chain: B1 chain with S32P, H35S, L36F, L37I
B5: hBCMA-19 CAR (other)
chain: B1 chain with S32P, H35S, L36F, L37I, T188A, S195G

Biological target: T1, BCMA expressed on MM1s cells (UniProt Q02223 1-184, limits assumed)
T1 sequence (looked up): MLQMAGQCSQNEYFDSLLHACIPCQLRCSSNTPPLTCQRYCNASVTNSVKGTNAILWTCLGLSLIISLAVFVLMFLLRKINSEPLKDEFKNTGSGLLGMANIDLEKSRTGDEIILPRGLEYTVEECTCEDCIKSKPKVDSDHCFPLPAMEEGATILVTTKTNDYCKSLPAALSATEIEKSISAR
Test: cell-based or functional assay

| Binder | killing toxicity against the target cell at effector-to-target ratio 1:1 [%] | killing toxicity against the target cell at effector-to-target ratio 3:1 [%] |
| --- | --- | --- |
| B1 | > 20 | > 70 |
| B2 | > 20 | > 70 |
| B3 | > 20 | > 70 |
| B4 | > 20 | > 70 |
| B5 | > 20 | > 70 |
